Columns and labels:
[1] = biological target: ribosome-nascent chain complex (RNC) stalled on mTFP1-KCNQ helices A, TW, B-SecM arrest peptide (UniProt P0ADZ0); test: high-speed atomic force microscopy
[2] = biological target: Trigger Factor (UniProt P0A850); test: high-speed atomic force microscopy

Trigger Factor (from UniProt P0A850 1-432) (natural protein)
duration of binding [1]: > 30 s
duration of binding (second interaction, near bL17) [1]: < 15 s
dwell time constant τ (first TF binding event) [1]: 8 s
dwell time constant τ (first TF molecule) [1]: 8.3 s
dwell time constant τ (second TF molecule, near bL17) [1]: 3.9 s
stoichiometry N [1]: 2
stoichiometry N [2]: 2

Source: doi:10.1101/2025.05.16.654432
